The source of these data is US20180051287A1 (VITRISA THERAPEUTICS, published 2018).

The experiment concerns the target human complement Factor D present in C1q-depleted human serum (human, UniProt P00746 26-253). Nature of the experiment: cell-based or functional assay.

Chain of human complement Factor D present in C1q-depleted human serum (P00746 26-253 limits assumed): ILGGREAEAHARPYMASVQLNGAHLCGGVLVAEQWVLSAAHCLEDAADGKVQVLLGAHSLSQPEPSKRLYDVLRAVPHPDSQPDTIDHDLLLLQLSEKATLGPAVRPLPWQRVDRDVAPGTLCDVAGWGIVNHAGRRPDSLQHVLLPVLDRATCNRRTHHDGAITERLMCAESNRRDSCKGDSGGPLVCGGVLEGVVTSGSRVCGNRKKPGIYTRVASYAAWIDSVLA

B1: anti-fD Fab with an amino acid sequence of heavy chain variable region according to SEQ ID NO: 71 and light chain variable region according to SEQ ID NO: 72 (Fab)
heavy: EVQLVQSGPELKKPGASVKVSCKASGYTFTNYGMNWVRQAPGQGLEWMGWINTYTGETTYADDFKGRFVFSLDTSVSTAYLQISSLKAEDTAVYYCERGGVNNWGQGTLVTVSSASTKGPSVFPLAPSSKSTSGGTAALGCLVKDYFPEPVTVSWNSGALTSGVHTFPAVLQSSGLYSLSSVVTVPSSSLGTQTYICNVNHKPSNTKVDKKVEPKSCDKTHT
light: DIQVTQSPSSLSASVGDRVTITCITSTDIDDDMNWYQQKPGKVPKLLISGGNTLRPGVPSRFSGSGSGTDFTLTISSLQPEDVATYYCLQSDSLPYTFGQGTKVEIKRTVAAPSVFIFPPSDEQLKSGTASVVCLLNNFYPREAKVQWKVDNALQSGNSQESVTEQDSKDSTYSLSSTLTLSKADYEKHKVYACEVTHQGLSSPVTKSFNRGEC
On to B1, for which the “IC50 inhibiting alternative complement in human serum (fD-dependent lysis of rabbit red blood cells)” value is 3.3 nM.
